In patent publication US20240270821A1, “GIP/GLP1/GCG TRI-RECEPTOR AGONISTS AND USES THEREOF” (priority 2023, published 2024):

Experiments:
Assay in all cases: cell-based or functional assay
[1] = biological target: human glucagon receptor (human) (UniProt P47871)
[2] = biological target: T1, human GIP receptor (human) (UniProt P48546)
T1 sequence (looked up): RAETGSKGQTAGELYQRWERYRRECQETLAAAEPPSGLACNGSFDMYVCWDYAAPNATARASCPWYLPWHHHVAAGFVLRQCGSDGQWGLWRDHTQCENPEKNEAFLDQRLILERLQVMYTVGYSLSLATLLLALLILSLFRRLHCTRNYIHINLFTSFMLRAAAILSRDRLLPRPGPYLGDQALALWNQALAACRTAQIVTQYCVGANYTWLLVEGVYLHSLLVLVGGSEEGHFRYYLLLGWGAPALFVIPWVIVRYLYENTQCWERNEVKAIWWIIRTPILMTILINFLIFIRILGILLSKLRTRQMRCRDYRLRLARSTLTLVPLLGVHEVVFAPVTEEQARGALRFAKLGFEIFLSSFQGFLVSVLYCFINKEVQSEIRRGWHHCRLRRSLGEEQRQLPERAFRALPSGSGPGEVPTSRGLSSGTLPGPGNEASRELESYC

[3] = biological target: human GLP1-R (SNAP-GLP-1R expressed in HEK293 cells) (human) (UniProt P43220)
Sequence of human GLP1-R (SNAP-GLP-1R expressed in HEK293 cells) (human) (P43220 24-463): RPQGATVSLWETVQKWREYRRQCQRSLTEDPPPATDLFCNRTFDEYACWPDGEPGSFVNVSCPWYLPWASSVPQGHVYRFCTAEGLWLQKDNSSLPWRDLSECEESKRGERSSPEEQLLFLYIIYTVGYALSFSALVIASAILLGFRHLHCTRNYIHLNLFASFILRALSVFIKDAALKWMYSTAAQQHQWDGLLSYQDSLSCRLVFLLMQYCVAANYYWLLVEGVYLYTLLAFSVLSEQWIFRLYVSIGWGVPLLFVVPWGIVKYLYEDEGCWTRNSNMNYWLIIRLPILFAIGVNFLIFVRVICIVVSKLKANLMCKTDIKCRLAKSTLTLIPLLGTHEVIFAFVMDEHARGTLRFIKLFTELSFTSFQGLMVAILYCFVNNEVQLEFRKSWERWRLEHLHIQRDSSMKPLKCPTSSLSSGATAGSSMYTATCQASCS

hGLP-1R = hGLP-1R (Homo sapiens, UniProt P43220)
Sequence of hGLP-1R (P43220 24-463): as above

Sequence of human glucagon receptor (human) (P47871 26-477): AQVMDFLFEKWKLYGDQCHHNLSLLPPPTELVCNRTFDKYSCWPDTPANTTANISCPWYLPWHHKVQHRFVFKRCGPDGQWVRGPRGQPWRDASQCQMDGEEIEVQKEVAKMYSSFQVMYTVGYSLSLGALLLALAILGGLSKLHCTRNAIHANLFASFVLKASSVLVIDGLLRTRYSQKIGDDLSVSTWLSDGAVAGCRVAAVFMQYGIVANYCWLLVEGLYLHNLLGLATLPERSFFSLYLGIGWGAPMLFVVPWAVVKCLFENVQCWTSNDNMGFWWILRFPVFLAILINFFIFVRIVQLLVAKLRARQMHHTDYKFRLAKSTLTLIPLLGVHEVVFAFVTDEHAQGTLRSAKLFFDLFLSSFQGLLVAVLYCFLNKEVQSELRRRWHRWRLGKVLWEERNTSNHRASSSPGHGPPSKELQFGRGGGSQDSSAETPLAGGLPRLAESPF

Binder	Relative cAMP EC50 [1]	cAMP Rel EC50, nM (in the presence of 1% HSA) [1]	Relative cAMP EC50 [2]	cAMP Rel EC50, nM (in the presence of 1% HSA) [2]	GLP1R Internalization EC50 [3]	Internalization % TOP [3]	Relative cAMP EC50 (hGLP-1R)	cAMP Rel EC50, nM (in the presence of 1% HSA) (hGLP-1R)
YXQGTFTSDFSRXLDKKAQXAFIEYLLEXGPSSGAPPPSGS (synthetic construct; SITE 2: note = 2-Aminoisobutyric Acid; SITE 13: note = alpha-methyl-leucine; SITE 17: note = Lysine is chemically modified through conjugation of the epsilon-amino group of the Lysine side chain with (2-[2-(2-Amino-ethoxy)-ethoxy]-acetyl)-(gamma-Glu)-CO-(CH2) 16-CO2H; SITE 20: n) [Example 79]	3.08 nM	903 nM	0.0773 nM	14.3 nM	56.6 nM	45.3%	1.8 nM	437 nM
YXQGTFTSDFSRXLDKKAQXAFIEYLLEXGPSSGAPPPSGS (synthetic construct; SITE 2: note = 2-Aminoisobutyric Acid; SITE 13: note = alpha-methyl-leucine; SITE 17: note = Lysine is chemically modified through conjugation of the epsilon-amino group of the Lysine side chain with (2-[2-(2-Amino-ethoxy)-ethoxy]-acetyl)2-(gamma-Glu)-CO-(CH2 )16-CO2H; SITE 20:) [Example 80]	7.44 nM	1190 nM	0.0593 nM	10.1 nM	35.8 nM	48.2%	2.55 nM	627 nM
YXQGTFTSDFSXXLDKKAQXAFIEYLLAGGPSSGAPPPSGT (synthetic construct; SITE 2: note = 2-Aminoisobutyric Acid; SITE 12: note = L-ornithine; SITE 13: note = alpha-methyl-leucine; SITE 17: note = Lysine is chemically modified through conjugation of the epsilon-amino group of the Lysine side chain with (2-[2-(2-Amino-ethoxy)-ethoxy]-acetyl)-(gamma-Glu)) [Example 87]	8.51 nM	1110 nM	0.128 nM	12.8 nM	61.8 nM	45.4%	2.75 nM	290 nM
YXQGTFTSDFSKXLDKKAQXAFIEYLIEGGPSSGAPPPSEG (not fully specified; synthetic construct; SITE 2: note = 2-Aminoisobutyric Acid; SITE 13: note = alpha-methyl-leucine; SITE 17: note = Lysine is chemically modified through conjugation of the epsilon-amino group of the Lysine side chain with (2-[2-(2-Amino-ethoxy)-ethoxy]-acetyl)-(gamma-Glu)-CO-gamma -gamma-(CH2)16-CO2H) [Example 49]	5.54 nM	1310 nM	0.324 nM	44.9 nM	37.2 nM	53.2%	0.706 nM	151 nM
YXQGTFTSDFSKXLDKKAQXAFIEYLLEGGPSSGAPPPSEG (not fully specified; synthetic construct; SITE 2: note = 2-Aminoisobutyric Acid; SITE 13: note = alpha-methyl-leucine; SITE 17: note = Lysine is chemically modified through conjugation of the epsilon-amino group of the Lysine side chain with (2-[2-(2-Amino-ethoxy)-ethoxy]-acetyl)-(gamma-Glu)-CO-(CH2) 16-CO2H; SITE 20: n) [Example 48]	3.8 nM	728 nM	0.27 nM	46.9 nM	44 nM	55.2%	2.99 nM	570 nM
YXQGTFTSDFSXXLDKKAQXAFIEYLLEXGPSSGAPPPSGS (synthetic construct; SITE 2: note = 2-Aminoisobutyric Acid; SITE 12: note = L-ornithine; SITE 13: note = alpha-methyl-leucine; SITE 17: note = Lysine is chemically modified through conjugation of the epsilon-amino group of the Lysine side chain with (2-[2-(2-Amino-ethoxy)-ethoxy]-acetyl)2-(gamma-Glu)) [Example 75]	4.51 nM	1040 nM	0.0578 nM	16.8 nM	61.8 nM	51.9%	4.4 nM	878 nM
YXQGTFTSDFSXXLDKKAQXAFIEYLLEGGPSSGAPPPSEG (synthetic construct; SITE 2: note = 2-Aminoisobutyric Acid; SITE 12: note = L-ornithine; SITE 13: note = alpha-methyl-leucine; SITE 17: note = Lysine is chemically modified through conjugation of the epsilon-amino group of the Lysine side chain with (2-[2-(2-Amino-ethoxy)-ethoxy]-acetyl)-(gamma-Glu)) [Example 50]	4.25 nM	1040 nM	0.29 nM	69.6 nM	30.1 nM	31.1%	4.65 nM	1110 nM
YXQGTFTSDFSXXLDKKAQXAFIEWLLEGGPSSGAPPPSGS (synthetic construct; SITE 2: note = 2-Aminoisobutyric Acid; SITE 12: note = L-ornithine; SITE 13: note = alpha-methyl-leucine; SITE 17: note = Lysine is chemically modified through conjugation of the epsilon-amino group of the Lysine side chain with (2-[2-(2-Amino-ethoxy)-ethoxy]-acetyl)-(gamma-Glu)) [Example 78]	7.06 nM	2640 nM	0.228 nM	78.4 nM	78.2 nM	55%	1.93 nM	560 nM
YXQGTFTSDFSXXLDKKAQXAFIEYLLEGGPSSGAPPPGGS (synthetic construct; SITE 2: note = 2-Aminoisobutyric Acid; SITE 12: note = L-ornithine; SITE 13: note = alpha-methyl-leucine; SITE 17: note = Lysine is chemically modified through conjugation of the epsilon-amino group of the Lysine side chain with (2-[2-(2-Amino-ethoxy)-ethoxy]-acetyl)-(gamma-Glu)) [Example 62]	3.96 nM	396 nM	0.146 nM	31.2 nM	40.3 nM	44.9%	2.72 nM	299 nM
YXQGTFTSDFSKXLDKKAQXAFIEYLLEGGPSSGAPPPSEG (synthetic construct; SITE 2: note = 2-Aminoisobutyric Acid; SITE 13: note = alpha-methyl-leucine; SITE 17: note = Lysine is chemically modified through conjugation of the epsilon-amino group of the Lysine side chain with (gamma-Glu)2-CO-(CH2)16-CO2H; SITE 20: note = 2-Aminoisobutyric Acid; SITE 41:) [Example 58]	4.86 nM	115 nM	0.175 nM	3.75 nM	56.2 nM	78.1%	2.93 nM	20.7 nM
YXQGTFTSDFSKXLDKKAQXAFIEYLLEXGPSSGAPPPSEG (synthetic construct; SITE 2: note = 2-Aminoisobutyric Acid; SITE 13: note = alpha-methyl-leucine; SITE 17: note = Lysine is chemically modified through conjugation of the epsilon-amino group of the Lysine side chain with (2-[2-(2-Amino-ethoxy)-ethoxy]-acetyl)-(gamma-Glu)-CO-(CH2) 16-CO2H; SITE 20: n) [Example 57]	4.37 nM	113 nM	0.098 nM	3.78 nM	76.6 nM	73.1%	3.06 nM	42.7 nM
